Data on 11 molecules can be found in patent US20190382481A1 (Janssen / Centocor, published 2019).

The target of test [1] is human CD33 (human, UniProt P20138 18-364). In words: cell-based or functional assay.
Test [2] has as its target cynomologous (cyno) rCD33 (cyno). As to the kind of experiment: method not stated.
In test [3] the target is T1, human recombinant (r)CD33 (human, UniProt P20138 18-259).
T1 construct: also called human rCD33
As to the kind of experiment: method not stated.

Test [4] has as its target T2, human rCD3e (human, UniProt P07766 23-126).
T2 construct: also called human recombinant CD3 epsilon
As to the kind of experiment: method not stated.

The target of test [5] is T3, cyno monkey rCD3e (cyno monkey, UniProt Q95LI5 22-117, limits assumed).
T3 construct: also called cyno recombinant CD3 epsilon
T3 sequence (looked up): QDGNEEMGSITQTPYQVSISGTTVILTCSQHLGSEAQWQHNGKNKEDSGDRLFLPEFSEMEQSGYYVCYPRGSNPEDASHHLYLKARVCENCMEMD
In words: method not stated.

The target of test [6] is CD33 on human CD33 expressing AML cell lines and primary human cells (endogenous) (human, UniProt P20138 18-364). As to the kind of experiment: cell-based or functional assay.
CD33 on human CD33 expressing AML cell lines and primary human cells (endogenous), sequence (P20138 18-364 limits assumed): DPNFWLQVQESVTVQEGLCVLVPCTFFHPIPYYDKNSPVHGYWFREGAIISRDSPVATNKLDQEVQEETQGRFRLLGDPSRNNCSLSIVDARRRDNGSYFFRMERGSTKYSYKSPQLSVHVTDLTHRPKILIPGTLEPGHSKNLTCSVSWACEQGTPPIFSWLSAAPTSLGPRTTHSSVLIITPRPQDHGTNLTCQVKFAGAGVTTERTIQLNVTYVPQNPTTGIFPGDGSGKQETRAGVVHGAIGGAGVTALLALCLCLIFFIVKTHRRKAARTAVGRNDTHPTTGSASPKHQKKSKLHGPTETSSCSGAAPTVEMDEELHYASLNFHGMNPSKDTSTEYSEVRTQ
Test [7] deals with T4, Human CD33-C2-HSA (human).
T4 construct: C2 domain of human CD33 fused to HSA; also called C33W4; huCD33-C2-HSA
As to the kind of experiment: IBIS SPRi off-rate screen.

For test [8], the target named is T5, Human CD33-C2-HSA (human).
T5 construct: C2 domain of human CD33 fused to HSA (C58S) and six-histidine tag; also called C33W4; huCD33-C2-HSA
In words: SPRi off-rate screen, domain constructs.

For test [9], the target named is T6, Cyno CD33 full length (over-expressed on transduced HEK293F / HEK 293T cells) (cyno).
T6 construct: also called cyCD33; cyno CD33 expressing cells
T6 sequence (chain, as listed by the source limits assumed): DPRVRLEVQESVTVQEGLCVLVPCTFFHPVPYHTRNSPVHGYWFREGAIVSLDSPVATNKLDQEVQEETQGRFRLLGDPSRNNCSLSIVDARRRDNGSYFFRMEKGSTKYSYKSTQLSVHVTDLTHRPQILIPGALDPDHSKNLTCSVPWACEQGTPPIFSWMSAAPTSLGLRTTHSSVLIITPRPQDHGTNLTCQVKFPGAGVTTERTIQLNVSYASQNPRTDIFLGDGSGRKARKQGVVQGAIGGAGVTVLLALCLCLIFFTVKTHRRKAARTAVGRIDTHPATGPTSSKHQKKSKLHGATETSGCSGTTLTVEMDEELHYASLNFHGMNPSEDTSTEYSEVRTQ
As to the kind of experiment: flow cytometry, HEK293F cells expressing cyno CD33. The method, then: (§1) The purified antibodies were assessed for binding to stably transfected HEK293F cells expressing human CD33 or cyno CD33 (generation described above) along with the parental HEK293F as negative control. Cells were harvested from tissue culture flasks using non-enzymatic dissociation buffer (Thermo Scientific). The flasks were rinsed twice with PBS and dissociation buffer was added to the flask, and the flask was incubated for 10 minutes at 37° C. until the cells became non-adherent. The cells were centrifuged at 300 g for 5 minutes and resuspended at 1.0×10⁶ cells/ml in staining buffer (Becton Dickinson; Franklin Lakes, N.J.). 50,000 cells/well of each cell type was plated in 50 μl of staining buffer in round bottom plates (Becton Dickinson). 50 μl of 2× concentration test mAb or isotype control was added at 3 dilutions and zero (120 nM, 12 nM, and 1.2 nM and 0 nM), and the resultant solution was incubated 30 min at 4° C. […] 30 ul running buffer containing Sytox Green live/dead dye (ThermoFisher) was added to all wells with cells and the plates were read on an iQue IntelliCyt flow cytometer. […] Antibody binding was assessed by the mean fluorescence intensity in the AF647 channel. […]

Test [10] deals with T7, Human CD33 full length (over-expressed on transduced HEK293F cells) (human, UniProt P20138 18-364).
T7 construct: also called huCD33; human CD33 expressing cells
T7 sequence (P20138 18-364 limits assumed): as the sequence (P20138 18-364 limits assumed) above
In words: flow cytometry, HEK293F cells expressing human CD33. The procedure:
as §1

The target in test [11] is T8, Human CD33-V-HSA (human).
T8 construct: V domain of human CD33 fused to HSA (C58S) and six-histidine tag; also called C33W3; huCD33-V-HSA
As to the kind of experiment: SPRi off-rate screen, domain constructs.

Test [12] concerns the target T9, Human CD33-V-HSA (human).
T9 construct: V domain of human CD33 fused to HSA; also called C33W3; huCD33-V-HSA
As to the kind of experiment: IBIS SPRi off-rate screen.

human CD33, sequence (P20138 18-364 limits assumed): as above
cynomologous (cyno) rCD33 (cyno), sequence (chain, as listed by the source limits assumed): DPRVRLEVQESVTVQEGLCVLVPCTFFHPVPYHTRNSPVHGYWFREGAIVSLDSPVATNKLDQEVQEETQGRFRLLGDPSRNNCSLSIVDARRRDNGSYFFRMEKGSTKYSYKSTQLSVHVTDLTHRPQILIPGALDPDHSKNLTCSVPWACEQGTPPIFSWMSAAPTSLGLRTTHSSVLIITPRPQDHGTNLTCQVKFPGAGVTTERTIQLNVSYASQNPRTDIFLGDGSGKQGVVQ
T1 sequence (P20138 18-259 limits assumed): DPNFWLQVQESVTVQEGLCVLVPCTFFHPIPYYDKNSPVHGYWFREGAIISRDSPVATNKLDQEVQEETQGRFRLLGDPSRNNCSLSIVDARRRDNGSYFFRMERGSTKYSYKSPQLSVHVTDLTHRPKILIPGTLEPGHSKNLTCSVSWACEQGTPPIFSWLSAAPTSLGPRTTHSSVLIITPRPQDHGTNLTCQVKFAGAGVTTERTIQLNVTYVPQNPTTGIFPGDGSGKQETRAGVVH
T2 sequence (P07766 23-126 limits assumed): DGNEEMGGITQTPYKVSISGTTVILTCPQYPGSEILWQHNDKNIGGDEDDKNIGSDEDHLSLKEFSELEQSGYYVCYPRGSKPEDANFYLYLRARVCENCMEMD

B1: C33B937 (antibody, human IgG4 S228P, lambda, F234A L235A, V domains shown)
VH: QVQLVESGGGVVQPGRSLRLSCVASGFTFSSYGMHWVRQAPGKGLEWVAVISYDGSNKYYADSVKGRFTISRDNSKNTLYLQMNSLRAEGTAVYYCAKDFRSFDWLPPDSASYHGMDVWGQGTTVTVSS
VL: SYELTQPPSVSVSPGQTASITCSGDKLGDKYASWYQQKPGQSPVLVIYQDGKRPSGIPERFSGSNFGNKATLTISGTQAMDEADYYCQAWDRNTVVFGGGTKLTVLG
As for B1, the “EC50 (nM), CD33 internalization assay (Protein A-MMAF cell viability, MOLM13)” value in test [1] was found to be 1.92 nM.

B2: C3CB189 (bispecific antibody, human IgG4 S228P, kappa, lambda, F234A L235A)
heavy 1: not shown
light 1: not shown
heavy 2: QVQLQQSGPRLVRPSQTLSLTCAISGDSVFNNNAAWSWIRQSPSRGLEWLGRTYYRSKWLYDYAVSVKSRITVNPDTSRNQFTLQLNSVTPEDTALYYCARGYSSSFDYWGQGTLVTVSSASTKGPSVFPLAPCSRSTSESTAALGCLVKDYFPEPVTVSWNSGALTSGVHTFPAVLQSSGLYSLSSVVTVPSSSLGTKTYTCNVDHKPSNTKVDKRVESKYGPPCPPCPAPEAAGGPSVFLFPPKPKDTLMISRTPEVTCVVVDVSQEDPEVQFNWYVDGVEVHNAKTKPREEQFNSTYRVVSVLTVLHQDWLNGKEYKCKVSNKGLPSSIEKTISKAKGQPREPQVYTLPPSQEEMTKNQVSLTCLVKGFYPSDIAVEWESNGQPENNYKTTPPVLDSDGSFLLYSKLTVDKSRWQEGNVFSCSVMHEALHNHYTQKSLSLSLGK
light 2: QSALTQPASVSGSPGQSITISCTGTSSNIGTYKFVSWYQQHPDKAPKVLLYEVSKRPSGVSSRFSGSKSGNTASLTISGLQAEDQADYHCVSYAGSGTLLFGGGTKLTVLGQPKAAPSVTLFPPSSEELQANKATLVCLISDFYPGAVTVAWKADSSPVKAGVETTTPSKQSNNKYAASSYLSLTPEQWKSHRSYSCQVTHEGSTVEKTVAPTECS
notes: Fully human IgG4-PAA bispecific made by Fab-arm exchange; CD33 arm C33B904 (C33H252/C33L118), CD3 arm CD3B376 (CD3H219/CD3L150; F405L, R409K); also called C33B904 × CD3B376
In test [2], B2 registered a Kd of 0.363 nM. Moreover, the Kd in test [3] is 0.00089 nM. For the same molecule, binding in [4] was characterised by a dissociation constant (Kd) of 151 nM. For the same molecule, the Kd in test [5] came out at 43.8 nM. For the same molecule, in test [6], the “T cell activation (CD25) in human whole blood with Kasumi-1, median EC50” value is 0.085 nM; the “T cell activation (CD25) in human whole blood with MOLM-13, median EC50” value came out at 0.037 nM; the “T cell activation (CD25) with KG-1 target cells, median EC50” value came to 0.0664 nM; the “T cell activation (CD25) with Kasumi-1 target cells, median EC50” value was 0.0432 nM. Further, in test [6], the “T cell activation (CD25) with MOLM-13 target cells, median EC50” value is 0.0283 nM; the “T cell activation (CD25) with OCI-AML3 target cells, median EC50” value turned out to be 0.05 nM; the “T cell-mediated cytotoxicity of KG-1, median EC50, 6 donors, 48 h” value stood at 0.168 nM; the “T cell-mediated cytotoxicity of Kasumi-1, median EC50, 6 donors, 48 h” value came out at 0.05 nM. In addition, in test [6], the “T cell-mediated cytotoxicity of Kasumi-1 spiked in human whole blood, median EC50, 48 h” value stood at 0.124 nM; the “T cell-mediated cytotoxicity of MOLM-13, median EC50, 6 donors, 48 h” value was 0.131 nM; the “T cell-mediated cytotoxicity of MOLM-13 spiked in human whole blood, median EC50, 48 h” value is 0.111 nM; the “T cell-mediated cytotoxicity of OCI-AML3, median EC50, 6 donors, 48 h” value is 0.183 nM. Also, the “ex vivo cytotoxicity of CD33+ blasts in AML patient whole blood, median EC50” value in [6] was determined as 0.365 nM.

B3: C33B836 (antibody, human IgG4 S228P, lambda, F234A L235A)
heavy: not shown
light: QSALTQPASVSGSPGQSITISCTGTSSDVGDYNYVSWYQQHPGKVPKLMIYDVSNRPSGVSNRFSGSMSGNTASLTISGLQAEDEADYYCSSYSSSSALEVFGGGTKLTVLGQPKAAPSVTLFPPSSEELQANKATLVCLISDFYPGAVTVAWKADSSPVKAGVETTTPSKQSNNKYAASSYLSLTPEQWKSHRSYSCQVTHEGSTVEKTVAPTECS
notes: huIgG4 PAA; HC C33H80, LC C33L73 (same V region as C33B48); also called C33F53
For the molecule B3, the binding result in test [7] is given as “no binding”.

B4: C33B836 (antibody, human IgG4 S228P, lambda, F234A L235A)
heavy: not shown
light: QSALTQPASVSGSPGQSITISCTGTSSDVGDYNYVSWYQQHPGKVPKLMIYDVSNRPSGVSNRFSGSMSGNTASLTISGLQAEDEADYYCSSYSSSSALEVFGGGTKLTVLGQPKAAPSVTLFPPSSEELQANKATLVCLISDFYPGAVTVAWKADSSPVKAGVETTTPSKQSNNKYAASSYLSLTPEQWKSHRSYSCQVTHEGSTVEKTVAPTECS
notes: huIgG4 PAA; OMNIRat campaign; also called C33H80/C33L73
On to B4, for which the binding result in test [8] is reported as “no binding”.

B5: C33B909 (antibody, V domains shown)
VH: EVQLVESGGGLVQPGRSLRLSCVASGFTFDDYAIHWVRQAPGKGLEWVSGLSWNGGNIGYADSVKGRFTISRDNAKNSLYLQMNSLKTEDTAFYYCTKDTPYGDYFDYWGQGTLVTVSS
VL: DIQMTQSPSSVWASVGDRVTITCRASQGISSWLAWYQQQPGKAPNLLIYRSSSLQSGVPSRFSGSGSGTDFTLTISSLQPEDFATYYCQQDNSFPYTFGQGTKLEIKR
notes: OMNIMouse campaign; also called C33H249/C33L115
Regarding B5, the binding result in test [9] and in [10] was “no binding” in each case.

B6: C33B782 (antibody, human IgG4 S228P, lambda, F234A L235A)
heavy: not shown
light: SYELTQPPSVSVSPGQTASITCSGNKLGAKFASWYQQKPGQSPVLVIYQDNKRPSGIPERFSGSNSGNTATLTISGTQAVDEADYYCQAWDSSTVVFGGGTKLTVLGQPKAAPSVTLFPPSSEELQANKATLVCLISDFYPGAVTVAWKADSSPVKAGVETTTPSKQSNNKYAASSYLSLTPEQWKSHRSYSCQVTHEGSTVEKTVAPTECS
notes: huIgG4 PAA; OMNIRat campaign; also called C33H72/C33L40
Turning to B6, the binding result in [11] and in [8] was “no binding” each time.

B7: C33B778 (antibody, human IgG4 S228P, lambda, F234A L235A)
heavy: not shown
light: SYELTQPPSVSVSPGQTASITCSGDKLGDKYACWYQQKPGQSPVLVIYQDGKRPSGIPERFSGSNFGNKATLTISGTQAMDEADYYCQAWDRNTVVFGGGTKLTVLGQPKAAPSVTLFPPSSEELQANKATLVCLISDFYPGAVTVAWKADSSPVKAGVETTTPSKQSNNKYAASSYLSLTPEQWKSHRSYSCQVTHEGSTVEKTVAPTECS
notes: huIgG4 PAA; HC C33H66, LC C33L60 (same V region as C33B73); also called C33F78
Regarding B7, the binding result in test [12] is on record as “no binding”.

B8: C33B778 (antibody, human IgG4 S228P, lambda, F234A L235A)
heavy: not shown
light: SYELTQPPSVSVSPGQTASITCSGDKLGDKYACWYQQKPGQSPVLVIYQDGKRPSGIPERFSGSNFGNKATLTISGTQAMDEADYYCQAWDRNTVVFGGGTKLTVLGQPKAAPSVTLFPPSSEELQANKATLVCLISDFYPGAVTVAWKADSSPVKAGVETTTPSKQSNNKYAASSYLSLTPEQWKSHRSYSCQVTHEGSTVEKTVAPTECS
notes: huIgG4 PAA; OMNIRat campaign; also called C33H66/C33L60
With B8, the binding result in test [11] is “no binding”.

B9: C33B782 (antibody, human IgG4 S228P, lambda, F234A L235A)
heavy: not shown
light: SYELTQPPSVSVSPGQTASITCSGNKLGAKFASWYQQKPGQSPVLVIYQDNKRPSGIPERFSGSNSGNTATLTISGTQAVDEADYYCQAWDSSTVVFGGGTKLTVLGQPKAAPSVTLFPPSSEELQANKATLVCLISDFYPGAVTVAWKADSSPVKAGVETTTPSKQSNNKYAASSYLSLTPEQWKSHRSYSCQVTHEGSTVEKTVAPTECS
notes: huIgG4 PAA; HC C33H72, LC C33L40 (same V region as C33B77); also called C33F82
As to B9, the binding result in [12] and in test [7] was “no binding” in each case.

B10: C33B792 (antibody, human IgG4 S228P, lambda, F234A L235A)
heavy: not shown
light: SYELTQPPSVSVSPGQTASITCSGDKLGNKYASWYQQKPGQSPVLVIYQDTKRPSGIPERVSGSNSGNTATLTISGTQAMDEADYHCQAWDSSTVVFGGGTKLTVLGQPKAAPSVTLFPPSSEELQANKATLVCLISDFYPGAVTVAWKADSSPVKAGVETTTPSKQSNNKYAASSYLSLTPEQWKSHRSYSCQVTHEGSTVEKTVAPTECS
notes: huIgG4 PAA; HC C33H87, LC C33L35 (same V region as C33B87); also called C33F92
As for B10, the binding result in test [12] and in [7] was “no binding” in each case.

B11: C33B792 (antibody, human IgG4 S228P, lambda, F234A L235A)
heavy: not shown
light: SYELTQPPSVSVSPGQTASITCSGDKLGNKYASWYQQKPGQSPVLVIYQDTKRPSGIPERVSGSNSGNTATLTISGTQAMDEADYHCQAWDSSTVVFGGGTKLTVLGQPKAAPSVTLFPPSSEELQANKATLVCLISDFYPGAVTVAWKADSSPVKAGVETTTPSKQSNNKYAASSYLSLTPEQWKSHRSYSCQVTHEGSTVEKTVAPTECS
notes: huIgG4 PAA; OMNIRat campaign; also called C33H87/C33L35
As for B11, the binding result in [11] and in test [8] was “no binding” in each case.
